The record followed here is patent publication US20210230570A1 (published 2021).

Sequences and labels used below:
T1: Factor VIIIa (recombinant FVIII, Kogenate FS, Bayer healthcare, activated with alpha-thrombin) (UniProt P00451 20-2351, limits assumed)
T1 construct: also called FVIIIa; cofactor
T1 sequence (looked up): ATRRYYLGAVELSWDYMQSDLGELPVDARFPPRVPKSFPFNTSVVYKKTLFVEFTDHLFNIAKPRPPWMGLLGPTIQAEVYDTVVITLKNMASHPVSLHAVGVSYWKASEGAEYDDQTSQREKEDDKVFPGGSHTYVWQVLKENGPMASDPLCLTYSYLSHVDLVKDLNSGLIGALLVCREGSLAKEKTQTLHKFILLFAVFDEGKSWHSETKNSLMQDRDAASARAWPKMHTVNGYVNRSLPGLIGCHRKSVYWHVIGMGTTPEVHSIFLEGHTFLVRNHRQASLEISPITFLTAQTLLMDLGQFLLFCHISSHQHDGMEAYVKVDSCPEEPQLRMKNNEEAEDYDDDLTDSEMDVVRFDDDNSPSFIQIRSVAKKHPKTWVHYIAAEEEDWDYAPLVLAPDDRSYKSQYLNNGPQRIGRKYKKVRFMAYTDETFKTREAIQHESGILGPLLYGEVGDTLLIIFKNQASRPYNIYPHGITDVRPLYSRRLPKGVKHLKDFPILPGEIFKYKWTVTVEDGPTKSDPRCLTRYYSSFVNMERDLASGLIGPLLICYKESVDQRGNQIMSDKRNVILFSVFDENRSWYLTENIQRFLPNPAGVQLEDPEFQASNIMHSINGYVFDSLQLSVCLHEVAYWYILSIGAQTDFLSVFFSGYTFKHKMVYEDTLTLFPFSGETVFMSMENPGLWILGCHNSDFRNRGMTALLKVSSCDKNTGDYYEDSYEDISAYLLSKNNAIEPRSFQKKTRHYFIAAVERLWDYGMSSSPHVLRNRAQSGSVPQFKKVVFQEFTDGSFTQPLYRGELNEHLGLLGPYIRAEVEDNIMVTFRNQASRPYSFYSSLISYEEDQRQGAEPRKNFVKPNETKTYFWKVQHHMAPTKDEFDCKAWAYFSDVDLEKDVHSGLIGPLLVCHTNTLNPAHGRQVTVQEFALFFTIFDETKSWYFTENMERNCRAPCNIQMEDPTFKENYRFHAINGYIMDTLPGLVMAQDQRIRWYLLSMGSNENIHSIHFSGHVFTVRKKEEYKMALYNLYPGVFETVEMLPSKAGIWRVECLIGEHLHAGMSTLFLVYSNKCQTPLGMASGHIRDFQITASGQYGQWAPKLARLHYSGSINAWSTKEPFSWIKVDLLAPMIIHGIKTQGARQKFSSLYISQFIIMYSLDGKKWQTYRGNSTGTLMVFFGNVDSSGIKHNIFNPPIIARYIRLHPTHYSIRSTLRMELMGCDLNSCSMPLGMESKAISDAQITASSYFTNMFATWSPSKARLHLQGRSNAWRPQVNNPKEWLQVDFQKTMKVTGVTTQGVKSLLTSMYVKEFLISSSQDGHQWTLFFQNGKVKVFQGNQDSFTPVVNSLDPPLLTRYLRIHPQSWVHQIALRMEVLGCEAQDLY

B1: FIXa-R318Y/R338E/E410S (enzyme)
chain 1: YNSGKLEEFVQGNLERECMEEKCSFEEAREVFENTERTTEFWKQYVDGDQCESNPCLNGGSCKDDINSYECWCPFGFEGKNCELDVTCNIKNGRCEQFCKNSADNKVVCSCTEGYRLAENQKSCEPAVPFPCGRVSVSQTSKLTR
chain 2: VVGGEDAKPGQFPWQVVLNGKVDAFCGGSIVNEKWIVTAAHCVETGVKITVVAGEHNIEETEHTEQKRNVIRIIPHHNYNAAINKYNHDIALLELDEPLVLNSYVTPICIADKEYTNIFLKFGSGYVSGWGRVFHKGYSALVLQYLRVPLVDRATCLESTKFTIYNNMFCAGFHEGGRDSCQGDSGGPHVTEVEGTSFLTGIISWGEECAMKGKYGIYTKVSRYVNWIKSKTKLT
notes: also called R150Y/R170E/E240S (chymotrypsin numbering)
B2: FIXa-R318Y/R338E/T343R/N346Y/R403E/E410N (enzyme)
chain 1: YNSGKLEEFVQGNLERECMEEKCSFEEAREVFENTERTTEFWKQYVDGDQCESNPCLNGGSCKDDINSYECWCPFGFEGKNCELDVTCNIKNGRCEQFCKNSADNKVVCSCTEGYRLAENQKSCEPAVPFPCGRVSVSQTSKLTR
chain 2: VVGGEDAKPGQFPWQVVLNGKVDAFCGGSIVNEKWIVTAAHCVETGVKITVVAGEHNIEETEHTEQKRNVIRIIPHHNYNAAINKYNHDIALLELDEPLVLNSYVTPICIADKEYTNIFLKFGSGYVSGWGRVFHKGYSALVLQYLRVPLVDRATCLESTKFRIYYNMFCAGFHEGGRDSCQGDSGGPHVTEVEGTSFLTGIISWGEECAMKGKYGIYTKVSEYVNWIKNKTKLT
notes: also called R150Y/R170E/T175R/N178Y/R233E/E240N (chymotrypsin numbering)
B3: FIXa-R318Y/R338E/R403E/E410N/T412V (enzyme)
chain 1: YNSGKLEEFVQGNLERECMEEKCSFEEAREVFENTERTTEFWKQYVDGDQCESNPCLNGGSCKDDINSYECWCPFGFEGKNCELDVTCNIKNGRCEQFCKNSADNKVVCSCTEGYRLAENQKSCEPAVPFPCGRVSVSQTSKLTR
chain 2: VVGGEDAKPGQFPWQVVLNGKVDAFCGGSIVNEKWIVTAAHCVETGVKITVVAGEHNIEETEHTEQKRNVIRIIPHHNYNAAINKYNHDIALLELDEPLVLNSYVTPICIADKEYTNIFLKFGSGYVSGWGRVFHKGYSALVLQYLRVPLVDRATCLESTKFTIYNNMFCAGFHEGGRDSCQGDSGGPHVTEVEGTSFLTGIISWGEECAMKGKYGIYTKVSEYVNWIKNKVKLT
notes: also called R150Y/R170E/R233E/E240N/T242V (chymotrypsin numbering)
B4: FIXa-Y155F/K247N/N249S/N260S (enzyme)
chain 1: YNSGKLEEFVQGNLERECMEEKCSFEEAREVFENTERTTEFWKQYVDGDQCESNPCLNGGSCKDDINSYECWCPFGFEGKNCELDVTCNIKNGRCEQFCKNSADNKVVCSCTEGYRLAENQKSCEPAVPFPCGRVSVSQTSKLTR
chain 2: VVGGEDAKPGQFPWQVVLNGKVDAFCGGSIVNEKWIVTAAHCVETGVKITVVAGEHNIEETEHTEQNRSVIRIIPHHNYSAAINKYNHDIALLELDEPLVLNSYVTPICIADKEYTNIFLKFGSGYVSGWGRVFHKGRSALVLQYLRVPLVDRATCLRSTKFTIYNNMFCAGFHEGGRDSCQGDSGGPHVTEVEGTSFLTGIISWGEECAMKGKYGIYTKVSRYVNWIKEKTKLT
B5: FIXa-R318Y/R338E/T343R/R403E/E410N (enzyme)
chain 1: YNSGKLEEFVQGNLERECMEEKCSFEEAREVFENTERTTEFWKQYVDGDQCESNPCLNGGSCKDDINSYECWCPFGFEGKNCELDVTCNIKNGRCEQFCKNSADNKVVCSCTEGYRLAENQKSCEPAVPFPCGRVSVSQTSKLTR
chain 2: VVGGEDAKPGQFPWQVVLNGKVDAFCGGSIVNEKWIVTAAHCVETGVKITVVAGEHNIEETEHTEQKRNVIRIIPHHNYNAAINKYNHDIALLELDEPLVLNSYVTPICIADKEYTNIFLKFGSGYVSGWGRVFHKGYSALVLQYLRVPLVDRATCLESTKFRIYNNMFCAGFHEGGRDSCQGDSGGPHVTEVEGTSFLTGIISWGEECAMKGKYGIYTKVSEYVNWIKNKTKLT
notes: also called R150Y/R170E/T175R/R233E/E240N (chymotrypsin numbering)
B6: FIXa-R318Y/R338E/R403E/E410S (enzyme)
chain 1: YNSGKLEEFVQGNLERECMEEKCSFEEAREVFENTERTTEFWKQYVDGDQCESNPCLNGGSCKDDINSYECWCPFGFEGKNCELDVTCNIKNGRCEQFCKNSADNKVVCSCTEGYRLAENQKSCEPAVPFPCGRVSVSQTSKLTR
chain 2: VVGGEDAKPGQFPWQVVLNGKVDAFCGGSIVNEKWIVTAAHCVETGVKITVVAGEHNIEETEHTEQKRNVIRIIPHHNYNAAINKYNHDIALLELDEPLVLNSYVTPICIADKEYTNIFLKFGSGYVSGWGRVFHKGYSALVLQYLRVPLVDRATCLESTKFTIYNNMFCAGFHEGGRDSCQGDSGGPHVTEVEGTSFLTGIISWGEECAMKGKYGIYTKVSEYVNWIKSKTKLT
notes: also called R150Y/R170E/R233E/E240S (chymotrypsin numbering)
B7: FIXa-R318Y/R338E/N346D/R403E/E410N (enzyme)
chain 1: YNSGKLEEFVQGNLERECMEEKCSFEEAREVFENTERTTEFWKQYVDGDQCESNPCLNGGSCKDDINSYECWCPFGFEGKNCELDVTCNIKNGRCEQFCKNSADNKVVCSCTEGYRLAENQKSCEPAVPFPCGRVSVSQTSKLTR
chain 2: VVGGEDAKPGQFPWQVVLNGKVDAFCGGSIVNEKWIVTAAHCVETGVKITVVAGEHNIEETEHTEQKRNVIRIIPHHNYNAAINKYNHDIALLELDEPLVLNSYVTPICIADKEYTNIFLKFGSGYVSGWGRVFHKGYSALVLQYLRVPLVDRATCLESTKFTIYDNMFCAGFHEGGRDSCQGDSGGPHVTEVEGTSFLTGIISWGEECAMKGKYGIYTKVSEYVNWIKNKTKLT
notes: also called R150Y/R170E/N178D/R233E/E240N (chymotrypsin numbering)
B8: FIXa-Y155F/K228N/R318Y/R338E/R403E/E410N (enzyme)
chain 1: YNSGKLEEFVQGNLERECMEEKCSFEEAREVFENTERTTEFWKQYVDGDQCESNPCLNGGSCKDDINSYECWCPFGFEGKNCELDVTCNIKNGRCEQFCKNSADNKVVCSCTEGYRLAENQKSCEPAVPFPCGRVSVSQTSKLTR
chain 2: VVGGEDAKPGQFPWQVVLNGKVDAFCGGSIVNEKWIVTAAHCVETGVNITVVAGEHNIEETEHTEQKRNVIRIIPHHNYNAAINKYNHDIALLELDEPLVLNSYVTPICIADKEYTNIFLKFGSGYVSGWGRVFHKGYSALVLQYLRVPLVDRATCLESTKFTIYNNMFCAGFHEGGRDSCQGDSGGPHVTEVEGTSFLTGIISWGEECAMKGKYGIYTKVSEYVNWIKNKTKLT
B9: FIXa-R318Y/R338E/N346Y/R403E/E410N (enzyme)
chain 1: YNSGKLEEFVQGNLERECMEEKCSFEEAREVFENTERTTEFWKQYVDGDQCESNPCLNGGSCKDDINSYECWCPFGFEGKNCELDVTCNIKNGRCEQFCKNSADNKVVCSCTEGYRLAENQKSCEPAVPFPCGRVSVSQTSKLTR
chain 2: VVGGEDAKPGQFPWQVVLNGKVDAFCGGSIVNEKWIVTAAHCVETGVKITVVAGEHNIEETEHTEQKRNVIRIIPHHNYNAAINKYNHDIALLELDEPLVLNSYVTPICIADKEYTNIFLKFGSGYVSGWGRVFHKGYSALVLQYLRVPLVDRATCLESTKFTIYYNMFCAGFHEGGRDSCQGDSGGPHVTEVEGTSFLTGIISWGEECAMKGKYGIYTKVSEYVNWIKNKTKLT
notes: also called R150Y/R170E/N178Y/R233E/E240N (chymotrypsin numbering)
B10: FIXa-R318Y/R338E/T343R/N346D/R403E/E410N (enzyme)
chain 1: YNSGKLEEFVQGNLERECMEEKCSFEEAREVFENTERTTEFWKQYVDGDQCESNPCLNGGSCKDDINSYECWCPFGFEGKNCELDVTCNIKNGRCEQFCKNSADNKVVCSCTEGYRLAENQKSCEPAVPFPCGRVSVSQTSKLTR
chain 2: VVGGEDAKPGQFPWQVVLNGKVDAFCGGSIVNEKWIVTAAHCVETGVKITVVAGEHNIEETEHTEQKRNVIRIIPHHNYNAAINKYNHDIALLELDEPLVLNSYVTPICIADKEYTNIFLKFGSGYVSGWGRVFHKGYSALVLQYLRVPLVDRATCLESTKFRIYDNMFCAGFHEGGRDSCQGDSGGPHVTEVEGTSFLTGIISWGEECAMKGKYGIYTKVSEYVNWIKNKTKLT
notes: also called R150Y/R170E/T175R/N178D/R233E/E240N (chymotrypsin numbering)

The target in this experiment is T1, Factor VIIIa (recombinant FVIII, …). As to the kind of experiment: same assay; KD-app of Catalyst Biosciences WT FIXa divided by KD-app of the variant. Here is the method: The molar concentration of FVIII was then determined by absorbance at 280 nm using an extinction coefficient of 1.567 mg⁻¹ mL cm⁻¹ and a molecular weight of 163.6 kDa.
Turning to B1, the KD-WT/KD-mut is 14.1 ratio. With B2 the figure was 6.1 ratio; with B3, 1.7 ratio. With B4 the figure was 0.6 ratio; with B5, 6.6 ratio. The value for B6 was 1.8 ratio; that for B7 was 0.9 ratio. Take B8: the KD-WT/KD-mut worked out at 3.1 ratio. B9: the KD-WT/KD-mut was 2.4 ratio.

On to B10, for which the KD-WT/KD-mut amounted to 1.3 ratio.
